# Measurements taken from doi:10.1101/2022.11.16.516715 (bioRxiv, 2022).
# B1: RsmA (natural protein)
# chain: not shown
# Target: the molecule itself
# Assay: cryo-EM structure
protein,measurement,value
B1,binding result,binds
